Columns and labels:
[1] = molecular target: T1, human CTLA4 expressed on HEK293-CTLA4 cells (human, UniProt P16410 36-223); test: flow cytometry on HEK293-CTLA4 cells, MFI, four-parameter fit
T1 construct: whole, on cells; also called human CTLA4 on the cell surface
Method: 3% of BSA/PBS was used to adjust the density of HEK293-CTLA4 cells to 3×10⁶ cells/ml.
Then, APC-goat anti-mouse IgG at a dilution of 1:100 was used, and placed on ice for 30 min for reaction. After that, they were washed with 1% of BSA/PBS and resuspended, and then detected on a FACS machine (using a Guava EasyCyte instrument).
The flow cytometry results were analyzed by Guava 5.3.1 to calculate the mean fluorescence intensity (MFI) of the detected samples. The log values of the obtained MFI versus the concentrations of the samples were calculated, and the experimental results were fit with four parameters using GraphPad Prism 6.0.

[2] = molecular target: CTLA4-muFc (fusion protein of human CTLA4 and mouse Fc) (human); test: competitive flow cytometry; taken as CTLA4-muFc with human CD86 on HEK293-CD86 cells as the blocked ligand, from the order of paragraph 274 and paragraph 275; the panel has no title
[3] = molecular target: T1, human CTLA4 expressed on HEK293-CTLA4 …; test: competitive flow cytometry; taken as HEK293-CTLA4 cells with CD86-muFc as the blocked ligand, from the order of paragraph 274 and paragraph 275; the panel has no title

B1: KN044 (VHH)
VHH: QVQLVESGGGLVQPGGSLRLSCAASGYIYSAYCMGWFRQAPGKGLEGVAAIYIGGGSTYYADSVKGRFTISRDNSKNTLYLQMNSLRAEDTAVYYCAADVIPTETCLGGSWSGPFGYWGQGTLVTVSS
For B1, the EC50 [1] was 2.01 nM, the “IC50 (read off the curve)” value [2] was about 10 nM and the “IC50 (read off the curve)” value [3] was about 8 nM.

From US20220251207A1 (JIANGSU ALPHAMAB BIOPHARMACEUTICALS, published 2022)
